Laboratory results reported in patent US20020111475A1 (IMMUNEX, published 2002).

T1: flt3 on murine WWF7 cells
T1 sequence (Q00342 whole entry, looked up): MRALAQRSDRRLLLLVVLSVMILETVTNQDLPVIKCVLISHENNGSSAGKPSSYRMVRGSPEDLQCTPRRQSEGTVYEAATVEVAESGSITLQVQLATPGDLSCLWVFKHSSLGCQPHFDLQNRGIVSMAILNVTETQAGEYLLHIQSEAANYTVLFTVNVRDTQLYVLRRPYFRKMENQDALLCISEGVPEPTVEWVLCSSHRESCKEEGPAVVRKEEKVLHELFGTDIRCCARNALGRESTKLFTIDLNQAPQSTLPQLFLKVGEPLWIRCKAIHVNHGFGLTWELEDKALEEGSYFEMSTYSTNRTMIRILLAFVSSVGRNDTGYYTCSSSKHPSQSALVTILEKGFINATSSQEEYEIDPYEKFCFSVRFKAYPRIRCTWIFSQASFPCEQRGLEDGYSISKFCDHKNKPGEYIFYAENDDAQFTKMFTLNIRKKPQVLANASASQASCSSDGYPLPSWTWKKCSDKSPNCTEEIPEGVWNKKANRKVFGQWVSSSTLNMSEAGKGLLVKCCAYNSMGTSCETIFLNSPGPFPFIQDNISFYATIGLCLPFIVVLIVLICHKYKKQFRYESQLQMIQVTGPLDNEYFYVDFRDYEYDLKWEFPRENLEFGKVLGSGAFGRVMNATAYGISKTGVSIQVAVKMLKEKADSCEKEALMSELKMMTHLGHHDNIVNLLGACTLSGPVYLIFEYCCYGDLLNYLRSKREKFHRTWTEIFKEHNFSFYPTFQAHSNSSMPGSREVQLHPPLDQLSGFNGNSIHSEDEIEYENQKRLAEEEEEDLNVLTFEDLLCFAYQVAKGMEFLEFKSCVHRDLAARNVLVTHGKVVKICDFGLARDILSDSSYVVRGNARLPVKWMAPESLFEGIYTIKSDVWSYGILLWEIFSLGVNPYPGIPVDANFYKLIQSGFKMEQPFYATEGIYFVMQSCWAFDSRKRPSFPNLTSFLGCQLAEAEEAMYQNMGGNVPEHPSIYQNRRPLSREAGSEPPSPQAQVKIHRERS

B1: flt3-L mutant F15L (ligand)
chain: LSGTQDCSFQHSPISSDLAVKIRELSDYLLQDYPVTVASNLQDEELCGGLWRLVLAQRWMERLKTVAGSKMQGLLERVNTEIHFVTKCAFQPPPSCLRFVQTNISRLLQETSEQLVALKPWITRQNFARCLELQCQPDSSTLPPPWSPRPLEATAPTAPQPPLLLLLLLPVGLLLLAAAWCLHWQRTRRRTPRPGEQVPPVPSPQDLLLVEH
B2: flt3-L mutant F15Y (ligand)
chain: LSGTQDCSFQHSPISSDYAVKIRELSDYLLQDYPVTVASNLQDEELCGGLWRLVLAQRWMERLKTVAGSKMQGLLERVNTEIHFVTKCAFQPPPSCLRFVQTNISRLLQETSEQLVALKPWITRQNFARCLELQCQPDSSTLPPPWSPRPLEATAPTAPQPPLLLLLLLPVGLLLLAAAWCLHWQRTRRRTPRPGEQVPPVPSPQDLLLVEH
B3: flt3-L mutant R20C (ligand)
chain: LSGTQDCSFQHSPISSDFAVKICELSDYLLQDYPVTVASNLQDEELCGGLWRLVLAQRWMERLKTVAGSKMQGLLERVNTEIHFVTKCAFQPPPSCLRFVQTNISRLLQETSEQLVALKPWITRQNFARCLELQCQPDSSTLPPPWSPRPLEATAPTAPQPPLLLLLLLPVGLLLLAAAWCLHWQRTRRRTPRPGEQVPPVPSPQDLLLVEH
B4: flt3-L mutant R55C (ligand)
chain: LSGTQDCSFQHSPISSDFAVKIRELSDYLLQDYPVTVASNLQDEELCGGLWRLVLAQCWMERLKTVAGSKMQGLLERVNTEIHFVTKCAFQPPPSCLRFVQTNISRLLQETSEQLVALKPWITRQNFARCLELQCQPDSSTLPPPWSPRPLEATAPTAPQPPLLLLLLLPVGLLLLAAAWCLHWQRTRRRTPRPGEQVPPVPSPQDLLLVEH
B5: flt3-L mutant R55L (ligand)
chain: LSGTQDCSFQHSPISSDFAVKIRELSDYLLQDYPVTVASNLQDEELCGGLWRLVLAQLWMERLKTVAGSKMQGLLERVNTEIHFVTKCAFQPPPSCLRFVQTNISRLLQETSEQLVALKPWITRQNFARCLELQCQPDSSTLPPPWSPRPLEATAPTAPQPPLLLLLLLPVGLLLLAAAWCLHWQRTRRRTPRPGEQVPPVPSPQDLLLVEH
B6: flt3-L mutant A64T (ligand)
chain: LSGTQDCSFQHSPISSDFAVKIRELSDYLLQDYPVTVASNLQDEELCGGLWRLVLAQRWMERLKTVTGSKMQGLLERVNTEIHFVTKCAFQPPPSCLRFVQTNISRLLQETSEQLVALKPWITRQNFARCLELQCQPDSSTLPPPWSPRPLEATAPTAPQPPLLLLLLLPVGLLLLAAAWCLHWQRTRRRTPRPGEQVPPVPSPQDLLLVEH
B7: flt3-L mutant V75A (ligand)
chain: LSGTQDCSFQHSPISSDFAVKIRELSDYLLQDYPVTVASNLQDEELCGGLWRLVLAQRWMERLKTVAGSKMQGLLERANTEIHFVTKCAFQPPPSCLRFVQTNISRLLQETSEQLVALKPWITRQNFARCLELQCQPDSSTLPPPWSPRPLEATAPTAPQPPLLLLLLLPVGLLLLAAAWCLHWQRTRRRTPRPGEQVPPVPSPQDLLLVEH
B8: flt3-L mutant F81L (ligand)
chain: LSGTQDCSFQHSPISSDFAVKIRELSDYLLQDYPVTVASNLQDEELCGGLWRLVLAQRWMERLKTVAGSKMQGLLERVNTEIHLVTKCAFQPPPSCLRFVQTNISRLLQETSEQLVALKPWITRQNFARCLELQCQPDSSTLPPPWSPRPLEATAPTAPQPPLLLLLLLPVGLLLLAAAWCLHWQRTRRRTPRPGEQVPPVPSPQDLLLVEH
B9: flt3-L mutant F87L (ligand)
chain: LSGTQDCSFQHSPISSDFAVKIRELSDYLLQDYPVTVASNLQDEELCGGLWRLVLAQRWMERLKTVAGSKMQGLLERVNTEIHFVTKCALQPPPSCLRFVQTNISRLLQETSEQLVALKPWITRQNFARCLELQCQPDSSTLPPPWSPRPLEATAPTAPQPPLLLLLLLPVGLLLLAAAWCLHWQRTRRRTPRPGEQVPPVPSPQDLLLVEH
B10: flt3-L mutant P90S (ligand)
chain: LSGTQDCSFQHSPISSDFAVKIRELSDYLLQDYPVTVASNLQDEELCGGLWRLVLAQRWMERLKTVAGSKMQGLLERVNTEIHFVTKCAFQPSPSCLRFVQTNISRLLQETSEQLVALKPWITRQNFARCLELQCQPDSSTLPPPWSPRPLEATAPTAPQPPLLLLLLLPVGLLLLAAAWCLHWQRTRRRTPRPGEQVPPVPSPQDLLLVEH
B11: flt3-L mutant R95C (ligand)
chain: LSGTQDCSFQHSPISSDFAVKIRELSDYLLQDYPVTVASNLQDEELCGGLWRLVLAQRWMERLKTVAGSKMQGLLERVNTEIHFVTKCAFQPPPSCLCFVQTNISRLLQETSEQLVALKPWITRQNFARCLELQCQPDSSTLPPPWSPRPLEATAPTAPQPPLLLLLLLPVGLLLLAAAWCLHWQRTRRRTPRPGEQVPPVPSPQDLLLVEH
B12: flt3-L mutant V113E (ligand)
chain: LSGTQDCSFQHSPISSDFAVKIRELSDYLLQDYPVTVASNLQDEELCGGLWRLVLAQRWMERLKTVAGSKMQGLLERVNTEIHFVTKCAFQPPPSCLRFVQTNISRLLQETSEQLEALKPWITRQNFARCLELQCQPDSSTLPPPWSPRPLEATAPTAPQPPLLLLLLLPVGLLLLAAAWCLHWQRTRRRTPRPGEQVPPVPSPQDLLLVEH
B13: flt3-L mutant F124L (ligand)
chain: LSGTQDCSFQHSPISSDFAVKIRELSDYLLQDYPVTVASNLQDEELCGGLWRLVLAQRWMERLKTVAGSKMQGLLERVNTEIHFVTKCAFQPPPSCLRFVQTNISRLLQETSEQLVALKPWITRQNLARCLELQCQPDSSTLPPPWSPRPLEATAPTAPQPPLLLLLLLPVGLLLLAAAWCLHWQRTRRRTPRPGEQVPPVPSPQDLLLVEH
B14: flt3-L mutant F124S (ligand)
chain: LSGTQDCSFQHSPISSDFAVKIRELSDYLLQDYPVTVASNLQDEELCGGLWRLVLAQRWMERLKTVAGSKMQGLLERVNTEIHFVTKCAFQPPPSCLRFVQTNISRLLQETSEQLVALKPWITRQNSARCLELQCQPDSSTLPPPWSPRPLEATAPTAPQPPLLLLLLLPVGLLLLAAAWCLHWQRTRRRTPRPGEQVPPVPSPQDLLLVEH
B15: flt3-L mutant D3G (ligand)
chain: LSGTQGCSFQHSPISSDFAVKIRELSDYLLQDYPVTVASNLQDEELCGGLWRLVLAQRWMERLKTVAGSKMQGLLERVNTEIHFVTKCAFQPPPSCLRFVQTNISRLLQETSEQLVALKPWITRQNFARCLELQCQPDSSTLPPPWSPRPLEATAPTAPQPPLLLLLLLPVGLLLLAAAWCLHWQRTRRRTPRPGEQVPPVPSPQDLLLVEH
B16: flt3-L mutant S9G (ligand)
chain: LSGTQDCSFQHGPISSDFAVKIRELSDYLLQDYPVTVASNLQDEELCGGLWRLVLAQRWMERLKTVAGSKMQGLLERVNTEIHFVTKCAFQPPPSCLRFVQTNISRLLQETSEQLVALKPWITRQNFARCLELQCQPDSSTLPPPWSPRPLEATAPTAPQPPLLLLLLLPVGLLLLAAAWCLHWQRTRRRTPRPGEQVPPVPSPQDLLLVEH
B17: flt3-L mutant P10S (ligand)
chain: LSGTQDCSFQHSSISSDFAVKIRELSDYLLQDYPVTVASNLQDEELCGGLWRLVLAQRWMERLKTVAGSKMQGLLERVNTEIHFVTKCAFQPPPSCLRFVQTNISRLLQETSEQLVALKPWITRQNFARCLELQCQPDSSTLPPPWSPRPLEATAPTAPQPPLLLLLLLPVGLLLLAAAWCLHWQRTRRRTPRPGEQVPPVPSPQDLLLVEH
B18: flt3-L mutant S13P (ligand)
chain: LSGTQDCSFQHSPISPDFAVKIRELSDYLLQDYPVTVASNLQDEELCGGLWRLVLAQRWMERLKTVAGSKMQGLLERVNTEIHFVTKCAFQPPPSCLRFVQTNISRLLQETSEQLVALKPWITRQNFARCLELQCQPDSSTLPPPWSPRPLEATAPTAPQPPLLLLLLLPVGLLLLAAAWCLHWQRTRRRTPRPGEQVPPVPSPQDLLLVEH

target: T1, flt3 on murine WWF7 cells; test: cell-based or functional assay

First: B1
Second: B2
The “Sp.Ac. MUT / Sp.Ac. WT (WWF7 cell proliferation units/ml per flt3-L ng/ml by ELISA, yeast supernatant)” value of the first is lower: 0 ratio to wild type for the first, 0.19 ratio to wild type for the second.

First: B3
Second: B4
The “Sp.Ac. MUT / Sp.Ac. WT (WWF7 cell proliferation units/ml per flt3-L ng/ml by ELISA, yeast supernatant)” value of the first is higher: 0.11 ratio to wild type for the first, 0.05 ratio to wild type for the second.

Compared with B5, B6 is lower in “Sp.Ac. MUT / Sp.Ac. WT (WWF7 cell proliferation units/ml per flt3-L ng/ml by ELISA, yeast supernatant)” value: 0.29 ratio to wild type for the first, 0.09 ratio to wild type for the second.

First: B7
Second: B8
The “Sp.Ac. MUT / Sp.Ac. WT (WWF7 cell proliferation units/ml per flt3-L ng/ml by ELISA, yeast supernatant)” value of the first is higher: 0.18 ratio to wild type for the first, 0.06 ratio to wild type for the second.

First: B9
Second: B10
The “Sp.Ac. MUT / Sp.Ac. WT (WWF7 cell proliferation units/ml per flt3-L ng/ml by ELISA, yeast supernatant)” value of the first is lower: 0.01 ratio to wild type for the first, 0.09 ratio to wild type for the second.

First: B11
Second: B12
The “Sp.Ac. MUT / Sp.Ac. WT (WWF7 cell proliferation units/ml per flt3-L ng/ml by ELISA, yeast supernatant)” value of the first is lower: 0.26 ratio to wild type for the first, 0.8 ratio to wild type for the second.

First: B13
Second: B14
The “Sp.Ac. MUT / Sp.Ac. WT (WWF7 cell proliferation units/ml per flt3-L ng/ml by ELISA, yeast supernatant)” value of the first is higher: 0.22 ratio to wild type for the first, 0 ratio to wild type for the second.

Compared with B15, B16 is lower in “Sp.Ac. MUT / Sp.Ac. WT (WWF7 cell proliferation units/ml per flt3-L ng/ml by ELISA, yeast supernatant)” value: 0.81 ratio to wild type for the first, 0.13 ratio to wild type for the second.

B17 and B18 are the same in “Sp.Ac. MUT / Sp.Ac. WT (WWF7 cell proliferation units/ml per flt3-L ng/ml by ELISA, yeast supernatant)” value: 0 ratio to wild type for the first, 0 ratio to wild type for the second.
